Experimental data reported in the supplement of paper PMC7125110.
± gives the standard error. Fewer inactive variants are shown than the library holds.

B1: glmS ribozyme (parent)
chain: AUAAAAGCGCCAGAACUACAGAAAUGUAGUUGACGAGGAGGAGGUUUAUCGAAUUUUCGGCGGAUGCCUCCAAA

Legend:
Conditions in all cases: with glucosamine-6-phosphate
[1] = variants of: B1; experiment: self-cleavage kobs at 40 uM GlcN6P; higher = faster cleavage; RNA array
Outline: (§1)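 kobs was derived by fitting per-tile medians to one- or two-exponential decays after normalising signals to baseline and to non-cleaving reference variants. Those signals came from barcoded ribozyme variants transcribed in situ by E. coli RNA polymerase on sequenced MiSeq chips, followed through a hybridised Cy3 probe at 37 °C and imaged over ~14 h. Glucosamine-6-phosphate (40 μM to 10 mM) in HEPES/KCl/Mg(OAc)2 buffer was flowed in. Weighted Michaelis–Menten fits across concentrations then gave kcat and KM.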

[2] = variants of: B1; experiment: self-cleavage kobs at 10000 uM GlcN6P; higher = faster cleavage; RNA array
Outline: as §1

[3] = variants of: B1; experiment: self-cleavage kobs at 160 uM GlcN6P; higher = faster cleavage; RNA array
Outline: as §1

[4] = variants of: B1; experiment: self-cleavage kobs at 640 uM GlcN6P; higher = faster cleavage; RNA array
Outline: as §1

[5] = variants of: B1; experiment: self-cleavage kobs at 2500 uM GlcN6P; higher = faster cleavage; RNA array
Outline: as §1

Row | Variant | self-cleavage kobs at 40 uM GlcN6P [1] | self-cleavage kobs at 10000 uM GlcN6P [2] | self-cleavage kobs at 160 uM GlcN6P [3] | self-cleavage kobs at 640 uM GlcN6P [4] | self-cleavage kobs at 2500 uM GlcN6P [5]
1 | A14U G38U G63U | < 1e-05 s⁻¹ | < 1e-05 s⁻¹ | – | – | –
2 | A14U G41C G43A G63U C67A C70A | < 1e-05 s⁻¹ | < 1e-05 s⁻¹ | – | – | –
3 | A15C G37U G40C U55G U65C U69C | < 1e-05 s⁻¹ | – | – | – | –
4 | A15G G29A G63U | < 1e-05 s⁻¹ | < 1e-05 s⁻¹ | – | – | –
5 | A15U G29C A39G | 6.29e-05 ± 1.7e-05 s⁻¹ | 0.00376 ± 0.0005 s⁻¹ | – | – | –
6 | C16U A53C | 0.000147 ± 2.2e-05 s⁻¹ | 0.00687 ± 0.0013 s⁻¹ | 0.000234 ± 6.4e-05 s⁻¹ | 0.00248 ± 0.00046 s⁻¹ | 0.00358 ± 0.00061 s⁻¹
7 | C16G A36G | < 1e-05 s⁻¹ | < 1e-05 s⁻¹ | < 1e-05 s⁻¹ | < 1e-05 s⁻¹ | –
8 | C16G A36C | < 1e-05 s⁻¹ | < 1e-05 s⁻¹ | – | < 1e-05 s⁻¹ | –
9 | A14U G38A U45G G63C | < 1e-05 s⁻¹ | – | – | – | –
10 | A15U G37C G38U | < 1e-05 s⁻¹ | – | – | – | –
11 | A15G G37C C58U | < 1e-05 s⁻¹ | – | – | – | –
12 | A14U U30C G44A U46G | < 1e-05 s⁻¹ | < 1e-05 s⁻¹ | – | < 1e-05 s⁻¹ | < 1e-05 s⁻¹
13 | A15C G32U A33C | < 1e-05 s⁻¹ | < 1e-05 s⁻¹ | < 1e-05 s⁻¹ | < 1e-05 s⁻¹ | < 1e-05 s⁻¹
14 | C16U G63U G66A | < 1e-05 s⁻¹ | < 1e-05 s⁻¹ | – | – | –
15 | A15G U49G | 4.65e-05 ± 2e-05 s⁻¹ | 0.00148 ± 0.00024 s⁻¹ | 0.000118 ± 3.1e-05 s⁻¹ | 0.000228 ± 4.3e-05 s⁻¹ | 0.000499 ± 0.0001 s⁻¹
16 | A15U C68A C71A | < 1e-05 s⁻¹ | – | – | – | –
17 | A14U C34G A42U U45C A53C | < 1e-05 s⁻¹ | < 1e-05 s⁻¹ | – | – | –
18 | C16A G29C G37U | < 1e-05 s⁻¹ | – | – | – | < 1e-05 s⁻¹
19 | A15G U65C U69A | < 1e-05 s⁻¹ | – | – | – | –
20 | A14G C16A U17C A18U C19A A20C | 0.000161 ± 4.5e-05 s⁻¹ | 0.00427 ± 0.00081 s⁻¹ | – | – | –
21 | A14G A36U A48U | < 1e-05 s⁻¹ | – | – | – | –
22 | A15C C16G G41A | < 1e-05 s⁻¹ | – | – | – | –
23 | A14G A33C C70U | < 1e-05 s⁻¹ | < 1e-05 s⁻¹ | < 1e-05 s⁻¹ | < 1e-05 s⁻¹ | < 1e-05 s⁻¹
24 | A14G G62U | < 1e-05 s⁻¹ | < 1e-05 s⁻¹ | – | – | < 1e-05 s⁻¹
25 | C16A G43C A48G C67U | < 1e-05 s⁻¹ | < 1e-05 s⁻¹ | – | – | –
26 | C16G U31A G35C G40A | < 1e-05 s⁻¹ | < 1e-05 s⁻¹ | – | – | < 1e-05 s⁻¹
